Consider 1 molecule from PMC6541275.

This test addresses Wild-type Microplasmin (human) (UniProt P00747).
UniProt P00747, sequence (P00747 whole entry): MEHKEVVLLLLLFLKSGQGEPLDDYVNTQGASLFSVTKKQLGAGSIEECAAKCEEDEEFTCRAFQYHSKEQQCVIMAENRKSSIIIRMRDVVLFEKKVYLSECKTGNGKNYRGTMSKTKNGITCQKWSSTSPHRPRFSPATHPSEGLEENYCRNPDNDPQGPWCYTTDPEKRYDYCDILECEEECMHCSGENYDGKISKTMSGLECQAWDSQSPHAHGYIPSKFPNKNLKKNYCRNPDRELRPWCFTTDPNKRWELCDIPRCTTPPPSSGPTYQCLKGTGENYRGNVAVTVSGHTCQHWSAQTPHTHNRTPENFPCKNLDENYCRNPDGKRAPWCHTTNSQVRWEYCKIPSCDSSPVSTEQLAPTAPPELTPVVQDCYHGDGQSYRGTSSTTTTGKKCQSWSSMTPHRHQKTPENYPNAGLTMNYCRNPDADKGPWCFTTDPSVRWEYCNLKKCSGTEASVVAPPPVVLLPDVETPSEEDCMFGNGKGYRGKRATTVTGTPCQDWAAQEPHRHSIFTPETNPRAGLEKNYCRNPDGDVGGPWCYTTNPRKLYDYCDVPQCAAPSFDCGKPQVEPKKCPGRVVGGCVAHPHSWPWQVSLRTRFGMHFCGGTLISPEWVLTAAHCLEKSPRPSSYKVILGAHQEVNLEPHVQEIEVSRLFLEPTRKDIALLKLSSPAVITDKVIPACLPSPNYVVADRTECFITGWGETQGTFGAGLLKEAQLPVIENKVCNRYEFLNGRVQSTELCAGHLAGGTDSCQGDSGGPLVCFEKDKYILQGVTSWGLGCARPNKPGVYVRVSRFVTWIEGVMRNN

B1: α2-antiplasmin (natural protein)
chain: NQEQVSPLTLLKLGNQEPGGQTALKSPPGVCSRDPTPEQTHRLARAMMAFTADLFSLVAQTSTCPNLILSPLSVALALSHLALGAQNHTLQRLQQVLHAGSGPCLPHLLSRLCQDLGPGAFRLAARMYLQKGFPIKEDFLEQSEQLFGAKPVSLTGKQEDDLANINQWVKEATEGKIQEFLSGLPEDTVLLLLNAIHFQGFWRNKFDPSLTQRDSFHLDEQFTVPVEMMQARTYPLRWFLLEQPEIQVAHFPFKNNMSFVVLVPTHFEWNVSQVLANLSWDTLHPPLVWERPTKVRLPKLYLKHQMDLVATLSQLGLQELFQAPDLRGISEQSLVVSGVQHQSTLELSEVGVEAAAATSIAMSRMSLSSFSVNRPFLFFIFEDTTGLPLFVGSVRNPNPSAPRELKEQQDSPGNKDFLQSLKGFPRGDKLFGPDLKLVPPMEEDYPQFGSPK
On to B1, for which the In vitro half-life of inactivation by α2-antiplasmin: residual amidolytic activity (Chromozym PL, 405nm) of 20nM microplasmin with 60nM antiplasmin, 100mM sodium phosphate pH 7.2, 25°C, 15sec-30 min was determined as 5 min.
